Reference: paper PMC7600425, “Modulation of Guanylate Cyclase Activating Protein 1 (GCAP1) Dimeric Assembly by Ca^2+ or Mg^2+: Hints to Understand Protein Activity” (Biomolecules, 2020)

Tests used:
[1] = target: RetGC (Homo sapiens) (UniProt Q02846); conditions: cited from earlier work
[2] = target: the molecule itself; assay: SEC; analytical SEC, Superdex 75 Increase 10/300 GL, six dilutions (87-2 µM injected); 20 mM Tris-HCl pH 8.0, 100 mM NaCl, 1 mM DTT, 5 mM CaCl2; Ca2+-bound; Kd from a 3-parameter fit of elution volume against concentration; dimer to monomers
[3] = target: the molecule itself; assay: MST; NT-647-NHS-labelled hGCAP1 with 16 dilutions of unlabelled hGCAP1 (46.6 µM to 11.4 nM); 20 mM Tris-HCl, 100 mM NaCl, pH 7.5, 1 mM DTT, 5 mM CaCl2, 0.05% Tween20; 24 °C; Ca2+-bound; dimer to monomers
[4] = target: the molecule itself; assay: MST; NT-647-NHS-labelled hGCAP1 with dilutions of unlabelled hGCAP1; 20 mM Tris-HCl, 150 mM KCl, 5 mM MgCl2, 2.5 mM EGTA, pH 7.5, 1 mM DTT, 0.05% Tween20; Mg2+-bound; dimer to monomers
[5] = target: the molecule itself; assay: SEC; analytical SEC, Superdex 75 Increase 10/300 GL, dilution series; 20 mM Tris-HCl pH 8.0, 100 mM NaCl, 1 mM DTT, 5 mM MgCl2, 2.5 mM EGTA; Mg2+-bound; Kd from a 3-parameter fit of elution volume against concentration; dimer to monomers

Chain of RetGC (Homo sapiens) (Q02846 52-1103): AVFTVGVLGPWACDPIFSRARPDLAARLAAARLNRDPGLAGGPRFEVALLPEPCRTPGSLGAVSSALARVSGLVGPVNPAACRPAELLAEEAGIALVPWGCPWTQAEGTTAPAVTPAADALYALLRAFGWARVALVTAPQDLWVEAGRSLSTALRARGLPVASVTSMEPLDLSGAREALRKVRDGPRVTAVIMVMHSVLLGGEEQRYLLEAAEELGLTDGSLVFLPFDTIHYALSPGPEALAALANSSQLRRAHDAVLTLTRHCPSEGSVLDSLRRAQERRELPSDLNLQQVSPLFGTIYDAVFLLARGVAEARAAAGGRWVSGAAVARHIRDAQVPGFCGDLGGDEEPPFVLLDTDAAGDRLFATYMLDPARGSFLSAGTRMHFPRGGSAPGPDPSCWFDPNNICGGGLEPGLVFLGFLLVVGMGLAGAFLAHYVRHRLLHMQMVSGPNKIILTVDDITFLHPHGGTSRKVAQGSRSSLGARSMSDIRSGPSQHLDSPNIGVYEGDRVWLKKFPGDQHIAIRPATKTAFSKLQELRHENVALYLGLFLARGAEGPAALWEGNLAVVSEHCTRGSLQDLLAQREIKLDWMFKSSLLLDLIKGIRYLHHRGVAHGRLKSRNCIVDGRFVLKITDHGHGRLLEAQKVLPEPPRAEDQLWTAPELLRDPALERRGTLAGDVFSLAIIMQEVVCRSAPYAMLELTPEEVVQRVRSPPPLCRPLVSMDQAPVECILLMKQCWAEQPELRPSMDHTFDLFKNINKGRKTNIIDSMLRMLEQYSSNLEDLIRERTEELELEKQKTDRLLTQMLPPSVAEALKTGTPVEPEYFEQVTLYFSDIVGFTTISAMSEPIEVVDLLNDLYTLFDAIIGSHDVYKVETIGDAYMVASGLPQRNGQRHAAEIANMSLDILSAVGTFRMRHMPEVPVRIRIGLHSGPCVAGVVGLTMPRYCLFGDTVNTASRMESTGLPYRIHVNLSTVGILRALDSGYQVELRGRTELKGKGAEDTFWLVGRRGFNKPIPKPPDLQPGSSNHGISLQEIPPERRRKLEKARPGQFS
Chain of GCAP1 (P43080 2-201): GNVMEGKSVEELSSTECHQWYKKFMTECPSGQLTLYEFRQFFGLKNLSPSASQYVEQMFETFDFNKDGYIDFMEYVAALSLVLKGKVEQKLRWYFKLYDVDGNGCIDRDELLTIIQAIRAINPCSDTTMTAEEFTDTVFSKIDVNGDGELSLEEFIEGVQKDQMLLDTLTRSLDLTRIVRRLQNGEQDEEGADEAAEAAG

Molecule | Kd [1] [µM] | Kd [2] [µM] | stoichiometry N [2] | Kd [3] [µM] | Kd [4] [µM] | Kd [5] [µM]
GCAP1 (from UniProt P43080) | 3.2 |  |  |  |  | 
human guanylyl cyclase-activating protein 1 (hGCAP1), N-terminally myristoylated, E6S (natural protein, UniProt P43080 1-201, looked up, N-terminal myristoylation (myristoylated Gly at the N-term); in the MST experiments the labelled copy carries the dye NT-647-NHS on primary amines (lysine residues), about 1:1, printed as 201 amino acids, 22.9 kDa; E6S needed for myristoylation in E. coli; In MST a dye-labelled copy was titrated with unlabelled protein; also called human GCAP1; recombinant human (h) GCAP1; source: E. coli BL21-CodonPlus RP, co-expressed with yeast N-myristoyltransferase, purified (ion exchange, SEC)) MGNVMSGKSVEELSSTECHQWYKKFMTECPSGQLTLYEFRQFFGLKNLSPSASQYVEQMFETFDFNKDGYIDFMEYVAALSLVLKGKVEQKLRWYFKLYDVDGNGCIDRDELLTIIQAIRAINPCSDTTMTAEEFTDTVFSKIDVNGDGELSLEEFIEGVQKDQMLLDTLTRSLDLTRIVRRLQNGEQDEEGADEAAEAAG |  | 8.8 ± 0.7 | 2 | 9.4 ± 1.3 | 77.2 ± 8.9 | 45 ± 15
